Assay results as given in publication PMC5524322, “Species A rotavirus NSP3 acquires its translation inhibitory function prior to stable dimer formation” (PLoS ONE, 2017).

B1: wild type NSP3 (non-structural protein 3) of simian species A rotavirus strain RRV [simian rotavirus A strain RRV] / itself (parent complex)
chain: MESTQQMASSIINSSFEAAVVAATSTLELMGIQYDYNEVYTRVKSKFDLVMDDSGVKNNLIGKAITIDQALNGKFSSAIRNRNWMTDSRTVAKLDEDVNKLRIMLSSKGIDQKMRVLNACFSVKRIPGKSSSIVKCTRLMKDKLERGEVEVDDSFVEEKMEVDTIDWKSRYEQLEKRFESLKHRVNEKYNHWVLKARKVNENMNSLQNVISQQQAHINELQMYNNKLERDLQSKIGSVVSSIEWYLRSMELSDDVKSDIEQQLNSIDQLNPVNAIDDFESILRNLISDYDRLFIMFKGLLQQCNYTYTYE

Variants of: B1
Assay: non-dissociating Western blot (WB-ND) densitometry; parent: 1; read off a plot

Variant	ratio to parent
MESTQQMASSIINSSFEAAVVAATSTLELMGIQYDYNEVYTRVKSKFDLVMDDSGVKNNLIGKAITIDQALNGKFSSAIRNRNWMTDSRTVAKLDEDVNKLRIMLSSKGIDQKMRVLNACFSVKRIPGKSSSIVKCTRLMKDKLERGEVEVDDSFVEEKMEVDTIDWESRYEQLEKRFESLKHRVNEKYNHWVLKARKVNENMNSLQNVISQQQAHINELQMYNNKLERDLQSKIGSVVSSIEWYLRSMELSDDVKSDIEQQLNSIDQLNPVNAIDDFESILRNLISDYDRLFIMFKGLLQQCNYTYTYE [chain 1 K168E]	~0.32
MESTQQMASSIINSSFEAAVVAATSTLELMGIQYDYNEVYTRVKSKFDLVMDDSGVKNNLIGKAITIDQALNGKFSSAIRNRNWMTDSRTVAKLDEDVNKLRIMLSSKGIDQKMRVLNACFSVKRIPGKSSSIVKCTRLMKDKLERGEVEVDDSFVEEKMEVDTIDWKSRYEQLEKRFESLKHEVNEEYNHWVLKARKVNENMNSLQNVISQQQAHINELQMYNNKLERDLQSKIGSVVSSIEWYLRSMELSDDVKSDIEQQLNSIDQLNPVNAIDDFESILRNLISDYDRLFIMFKGLLQQCNYTYTYE [chain 1 R184E, chain 1 K188E]	~0.13
MESTQQMASSIINSSFEAAVVAATSTLELMGIQYDYNEVYTRVKSKFDLVMDDSGVKNNLIGKAITIDQALNGKFSSAIRNRNWMTDSRTVAKLDEDVNKLRIMLSSKGIDQKMRVLNACFSVKRIPGKSSSIVKCTRLMKDKLERGEVEVDDSFVEEKMEVDTIDWKSRYEQLEKRFESLKHRVNEKANHWVLKARKVNENMNSLQNVISQQQAHINELQMYNNKLERDLQSKIGSVVSSIEWYLRSMELSDDVKSDIEQQLNSIDQLNPVNAIDDFESILRNLISDYDRLFIMFKGLLQQCNYTYTYE [chain 1 Y189A]	~1.8
MESTQQMASSIINSSFEAAVVAATSTLELMGIQYDYNEVYTRVKSKFDLVMDDSGVKNNLIGKAITIDQALNGKFSSAIRNRNWMTDSRTVAKLDEDVNKLRIMLSSKGIDQKMRVLNACFSVKRIPGKSSSIVKCTRLMKDKLERGEVEVDDSFVEEKMEVDTIDWKSEYEQLEKRFESLKHRVNEKYNHWVLKARKVNENMNSLQNVISQQQAHINELQMYNNKLERDLQSKIGSVVSSIEWYLRSMELSDDVKSDIEQQLNSIDQLNPVNAIDDFESILRNLISDYDRLFIMFKGLLQQCNYTYTYE [chain 1 R170E]	~0.17
